Where a chain is given by its changes, count along the chain named.
B1: CE115HA000 G98K (antibody, human IgG1, kappa, L234A L235A, N297A, name in Kabat numbering)
heavy: QVQLVESGGGVVQPGRSLRLSCAASGFTFSNAWMHWVRQAPGKGLEWVAQIKAKSNNYATYYAESVKGRFTISRDDSKNSLYLQMNSLKTEDTAVYYCRYVHYKAYYGVDAWGQGTTVTVSSASTKGPSVFPLAPSSKSTSGGTAALGCLVKDYFPEPVTVSWNSGALTSGVHTFPAVLQSSGLYSLSSVVTVPSSSLGTQTYICNVNHKPSNTKVDKKVEPKSCDKTHTCPPCPAPEAAGGPSVFLFPPKPKDTLMISRTPEVTCVVVDVSHEDPEVKFNWYVDGVEVHNAKTKPREEQYASTYRVVSVLTVLHQDWLNGKEYKCKVSNKALPAPIEKTISKAKGQPREPQVYTLPPSRCELTKNQVSLSCAVKGFYPSDIAVEWESNGQPENNYKTTPPVLDSDGSFFLVSKLTVDKSRWQQGNVFSCSVMHEALHNHYTQKSLSLSPDYKDDDDK
chain: EPKSSDKTHTCPPCPAPELLGGPSVFLFPPKPKDTLMISRTPEVTCVVVDVSHEDPEVKFNWYVDGVEVHNAKTKPREEQYNSTYRVVSVLTVLHQDWLNGKEYKCKVSNKALPAPIEKTISKAKGQPREPQVCTLPPSRDELTKNQVSLWCLVKGFYPSDIAVEWESNGQPENNYKTTPPVLDSDGSFFLYSKLTVDKSRWQQGNVFSCSVMHEALHNRYTQKSLSLSP
light: DIVMTQSPLSLPVTPGEPASISCRSSQSLVHSNRNTYLHWYQQKPGQAPRLLIYKVSNRFSGVPDRFSGSGSGTDFTLKISRVEAEDVGVYYCGQGTQVPYTFGQGTKLEIKRTVAAPSVFIFPPSDEQLKSGTASVVCLLNNFYPREAKVQWKVDNALQSGNSQESVTEQDSKDSTYSLSSTLTLSKADYEKHKVYACEVTHQGLSSPVTKSFNRGEC
notes: one-arm antibody
B2: CE115HA000 H35N (antibody, human IgG1, kappa, L234A L235A, N297A, name in Kabat numbering)
heavy: B1 heavy with H35N, K104G
chain: B1 chain
light: B1 light
notes: one-arm antibody
B3: CE115HA000 G100bL (antibody, human IgG1, kappa, L234A L235A, N297A, name in Kabat numbering)
heavy: B1 heavy with K104G, G108L
chain: B1 chain
light: B1 light
notes: one-arm antibody
B4: CE115HA000 G98Q (antibody, human IgG1, kappa, L234A L235A, N297A, name in Kabat numbering)
heavy: B1 heavy with K104Q
chain: B1 chain
light: B1 light
notes: one-arm antibody
B5: CE115HA000 H35T (antibody, human IgG1, kappa, L234A L235A, N297A, name in Kabat numbering)
heavy: B1 heavy with H35T, K104G
chain: B1 chain
light: B1 light
notes: one-arm antibody
B6: CE115HA000 H35V (antibody, human IgG1, kappa, L234A L235A, N297A, name in Kabat numbering)
heavy: B1 heavy with H35V, K104G
chain: B1 chain
light: B1 light
notes: one-arm antibody
B7: CE115HA000 H35G (antibody, human IgG1, kappa, L234A L235A, N297A, name in Kabat numbering)
heavy: B1 heavy with H35G, K104G
chain: B1 chain
light: B1 light
notes: one-arm antibody
B8: CE115HA000 G98S (antibody, human IgG1, kappa, L234A L235A, N297A, name in Kabat numbering)
heavy: B1 heavy with K104S
chain: B1 chain
light: B1 light
notes: one-arm antibody
B9: CE115HA000 H35L (antibody, human IgG1, kappa, L234A L235A, N297A, name in Kabat numbering)
heavy: B1 heavy with H35L, K104G
chain: B1 chain
light: B1 light
notes: one-arm antibody
B10: CE115HA000 G98Y (antibody, human IgG1, kappa, L234A L235A, N297A, name in Kabat numbering)
heavy: B1 heavy with K104Y
chain: B1 chain
light: B1 light
notes: one-arm antibody
B11: CE115HA000 H35E (antibody, human IgG1, kappa, L234A L235A, N297A, name in Kabat numbering)
heavy: B1 heavy with H35E, K104G
chain: B1 chain
light: B1 light
notes: one-arm antibody
B12: CE115HA000 H96P (antibody, human IgG1, kappa, L234A L235A, N297A, name in Kabat numbering)
heavy: B1 heavy with H102P, K104G
chain: B1 chain
light: B1 light
notes: one-arm antibody
B13: CE115HA000 G98R (antibody, human IgG1, kappa, L234A L235A, N297A, name in Kabat numbering)
heavy: B1 heavy with K104R
chain: B1 chain
light: B1 light
notes: one-arm antibody
B14: CE115HA000 H96L (antibody, human IgG1, kappa, L234A L235A, N297A, name in Kabat numbering)
heavy: B1 heavy with H102L, K104G
chain: B1 chain
light: B1 light
notes: one-arm antibody
B15: CE115HA000 H35Y (antibody, human IgG1, kappa, L234A L235A, N297A, name in Kabat numbering)
heavy: B1 heavy with H35Y, K104G
chain: B1 chain
light: B1 light
notes: one-arm antibody
B16: CE115HA000 G98T (antibody, human IgG1, kappa, L234A L235A, N297A, name in Kabat numbering)
heavy: B1 heavy with K104T
chain: B1 chain
light: B1 light
notes: one-arm antibody
B17: CE115HA000 G100bS (antibody, human IgG1, kappa, L234A L235A, N297A, name in Kabat numbering)
heavy: B1 heavy with K104G, G108S
chain: B1 chain
light: B1 light
notes: one-arm antibody
B18: CE115HA000 H35K (antibody, human IgG1, kappa, L234A L235A, N297A, name in Kabat numbering)
heavy: B1 heavy with H35K, K104G
chain: B1 chain
light: B1 light
notes: one-arm antibody
B19: CE115HA000 H35F (antibody, human IgG1, kappa, L234A L235A, N297A, name in Kabat numbering)
heavy: B1 heavy with H35F, K104G
chain: B1 chain
light: B1 light
notes: one-arm antibody
B20: CE115HA000 H35Q (antibody, human IgG1, kappa, L234A L235A, N297A, name in Kabat numbering)
heavy: B1 heavy with H35Q, K104G
chain: B1 chain
light: B1 light
notes: one-arm antibody
B21: CE115HA000 G98P (antibody, human IgG1, kappa, L234A L235A, N297A, name in Kabat numbering)
heavy: B1 heavy with K104P
chain: B1 chain
light: B1 light
notes: one-arm antibody
B22: CE115HA000 G100bF (antibody, human IgG1, kappa, L234A L235A, N297A, name in Kabat numbering)
heavy: B1 heavy with K104G, G108F
chain: B1 chain
light: B1 light
notes: one-arm antibody
B23: CE115HA000 H35R (antibody, human IgG1, kappa, L234A L235A, N297A, name in Kabat numbering)
heavy: B1 heavy with H35R, K104G
chain: B1 chain
light: B1 light
notes: one-arm antibody
B24: CE115HA000 G100bD (antibody, human IgG1, kappa, L234A L235A, N297A, name in Kabat numbering)
heavy: B1 heavy with K104G, G108D
chain: B1 chain
light: B1 light
notes: one-arm antibody
B25: CE115HA000 G100bY (antibody, human IgG1, kappa, L234A L235A, N297A, name in Kabat numbering)
heavy: B1 heavy with K104G, G108Y
chain: B1 chain
light: B1 light
notes: one-arm antibody
B26: CE115HA000 H96K (antibody, human IgG1, kappa, L234A L235A, N297A, name in Kabat numbering)
heavy: B1 heavy with H102K, K104G
chain: B1 chain
light: B1 light
notes: one-arm antibody
B27: CE115HA000 H35S (antibody, human IgG1, kappa, L234A L235A, N297A, name in Kabat numbering)
heavy: B1 heavy with H35S, K104G
chain: B1 chain
light: B1 light
notes: one-arm antibody
B28: CE115HA000 G100bE (antibody, human IgG1, kappa, L234A L235A, N297A, name in Kabat numbering)
heavy: B1 heavy with K104G, G108E
chain: B1 chain
light: B1 light
notes: one-arm antibody
B29: CE115HA000 H96G (antibody, human IgG1, kappa, L234A L235A, N297A, name in Kabat numbering)
heavy: B1 heavy with H102G, K104G
chain: B1 chain
light: B1 light
notes: one-arm antibody
B30: CE115HA000 H35M (antibody, human IgG1, kappa, L234A L235A, N297A, name in Kabat numbering)
heavy: B1 heavy with H35M, K104G
chain: B1 chain
light: B1 light
notes: one-arm antibody
B31: CE115HA000 H35W (antibody, human IgG1, kappa, L234A L235A, N297A, name in Kabat numbering)
heavy: B1 heavy with H35W, K104G
chain: B1 chain
light: B1 light
notes: one-arm antibody
B32: CE115HA000 H35I (antibody, human IgG1, kappa, L234A L235A, N297A, name in Kabat numbering)
heavy: B1 heavy with H35I, K104G
chain: B1 chain
light: B1 light
notes: one-arm antibody
B33: CE115HA000 H35D (antibody, human IgG1, kappa, L234A L235A, N297A, name in Kabat numbering)
heavy: B1 heavy with H35D, K104G
chain: B1 chain
light: B1 light
notes: one-arm antibody

The binders below were run against T1, CD3 epsilon homodimer protein (UniProt P07766 23-126) (assay: SPR, CD3 epsilon homodimer on chip, one-arm antibody as analyte;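 note: surface plasmon resonance at 25 °C with CD3 epsilon homodimer amine-coupled to a CM4 sensor chip, antibody injected as analyte, HBS-EP+ as running buffer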).
T1 construct: also called CD3 (CD3 epsilon)
T1 sequence (P07766 23-126): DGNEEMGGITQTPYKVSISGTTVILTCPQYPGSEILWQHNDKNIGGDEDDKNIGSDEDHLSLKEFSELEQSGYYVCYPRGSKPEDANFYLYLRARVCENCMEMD

KD ratio (KD of CE115HA000/KD of altered form) | Binder
4.85 | B1
2.88 | B2
5.84 | B3
1.04 | B4
4.4 | B5
28.1 | B6
45.8 | B7
0.98 | B8
4.8 | B9
2.75 | B10
70.3 | B11
87000 | B12
4.69 | B13
3.14 | B14
119000 | B15
0.93 | B16
1.25 | B17

KD ratio (KD of CE115HA000/KD of altered form) | Binder
14.4 | B18
53.6 | B19
4.8 | B20
0.88 | B21
4.37 | B22
15400 | B23
6.25 | B24
51.4 | B25
1.56 | B26
2.93 | B27
7.29 | B28
0.8 | B29
3.98 | B30
50.4 | B31
7.23 | B32
69 | B33

From patent US20210388087A1 (Chugai, published 2021)
